Data on eight molecules can be found in PMC9882070 (bioRxiv, 2023).

Some results are limits rather than exact numbers.

Experiment in all cases: ThT fluorescence aggregation assay + negative-stain TEM
The target of series [1] is R2R3Ac, R2R3 tau peptide chemically acetylated with N-succinimidyl acetate.
In series [2] the target is R1R3Ac, R1R3 tau peptide chemically acetylated with N-succinimidyl acetate.
Series [3] deals with the molecule itself.

In the case of “R2R3Ac, R2R3 tau peptide chemically acetylated with N-succinimidyl acetate”, in series [1], the t1/2max of ThT aggregation turned out to be 4.12 days. As to “R1R3Ac, R1R3 tau peptide chemically acetylated with N-succinimidyl acetate”, in series [2], the t1/2max of ThT aggregation was 1.66 days. In the case of TENLQHQPGGGKVQIVYQ [R1R3_13Q tau peptide], the binding result in series [3] is “binds”. Regarding TENLKHQPGGGQVQIVYQ [R1R3_23Q tau peptide], in series [3], the “t1/2max of ThT aggregation” value is under 0.25 days.

Take TENLQHQPGGGQVQIINK [R1R2_12Q tau peptide]: the “t1/2max of ThT aggregation” value in series [3] was under 1.5 days. Still for that read-out and setting: as for TENLQHQPGGGQVQIVYK [R1R3_12Q tau peptide], the figure is under 1.5 days; as for KDNIKHVPGGGSVQIVYQ [R2R3_3Q tau peptide], 0.16 days; as for KDNIQHVPGGGSVQIVYK [R2R3_2Q tau peptide], 3 ± 0.3 days.
